Earlier results on three substances are cited in article PMC10461426.

Data set [1] deals with IL-1R1 (Homo sapiens) (UniProt P14778).
The target is the same in data set [2]. The source holds these as a separate data set.
For data set [3] the target is unchanged. This is another data set of the same source.

Read-outs that look alike come from different tables or passages of the source.

With IL-1Ra (from UniProt P18510), the equilibrium dissociation constant (Kd) with IL-1R1 (Homo sapiens) [1] is 38 nM. IL-1beta (from UniProt P01584): in the data set with IL-1R1 (Homo sapiens) [2], the Kd was 21 nM.

Turning to IL-38 (from UniProt Q8WWZ1), in the data set with IL-1R1 (Homo sapiens) [3], the Kd was 93 nM.

Broadly, the Kd is the equilibrium constant for the complex coming apart.
